The source of these data is paper PMC9117880.

Common to all, as to experiment: MST
The target in test [1] is SRS-MTBD (22/19) D3402A mutant (not stated | mouse).
The target is the same in test [2]. This is another data set of the same source.
Test [3] has the same target. The source holds these as a separate data set.
The target is the same in test [4]. This is another data set of the same source.

Several values for one entry are separate records, joined by “and”; a condition that tells them apart may be missing. Equal entries are not always repeated. Where two headings read alike, the source gives them in different places.

Take “taxol-stabilized, unlabeled microtubules (porcine brain tubulin) (from UniProt P02550 1-451) (complex)”: the Kd (in general, the equilibrium constant for the complex coming apart) is 460 nM in test [1]; 5.49 µM in test [2]; 530 nM in test [3]; 13 µM and 14.7 µM in test [4].
